Source: publication PMC9490041 (2022)
Like-named read-outs stand apart in the source and are kept apart here. Ends that are not written are not given here. * marks the point of attachment. FITC = O=C1OC2(c3ccc(O)cc3Oc3cc(O)ccc32)c2ccc(NC(=S)*)cc21; Dansyl = CN(C)c1cccc2c(S(=O)(=O)*)cccc12

How the values were obtained:
[1] = biological target: PSG (PSD-95), PDZ3-SH3-GK supramodule, wild type
[2] = biological target: PSG (PSD-95), PDZ3-SH3-GK supramodule, wild type; assay: FP

Binder: Dansyl-AQRGSFPPWVQQTRV [15 AA SynGap (DNS-AQRGSFPPWVQQTRV)]
- Kd [1]: 0.55 µM

Binder: {FITC}-PLVGQDIIDLQTEV [FITC-14 AA ADGRB1]
- Kd [2]: 60 µM

Binder: Dansyl-RDGCHRLPKIKETTV [15 AA FRPD4, dansylated (DNS-RDGCHRLPKIKETTV)]
- Kd [1]: 0.76 µM

Binder: Dansyl-KTESKKHGRWKLWFL [15 AA INSY2, dansylated (DNS-KTESKKHGRWKLWFL)]
- Kd [1]: 161 µM

Binder: Dansyl-GKKVLDTKNYKQTSV [15 AA CRIPT, dansylated (DNS-GKKVLDTKNYKQTSV)]
- Kd [1]: 0.49 µM
